Data reported in patent US20260109761A1 (IP2IPO INNOVATIONS, published 2026).

B1: H2_T63Y_VL-par (antibody, V domains shown)
VH: QVQLVESGGGVVQPGRSLRLSCAASGFTFSDYGMHWVRQAPGKGLEWVAYISSGGTTIYYADYVKGRFTISRDNSKNTLYLQMNSLRAEDTAVYYCARWTNLYAMDYWGQGTTVTVSS
VL: DIVLTQSPDSLAVSLGERATINCRASKSVSTSGYSYMHWYQQKPGQPPKFLIYLASNLESGVPDRFSGSGSGTDFTLTISSLQAEDVAVYYCQHSREVPYTFGGGTKVEIKR
notes: Fc null human IgG1 / human kappa
B2: H2_Y60K_L2 (antibody, V domains shown)
VH: QVQLVESGGGVVQPGRSLRLSCAASGFTFSDYGMHWVRQAPGKGLEWVAYISSGGTTIYKADTVKGRFTISRDNSKNTLYLQMNSLRAEDTAVYYCARWTNLYAMDYWGQGTTVTVSS
VL: DIVLTQSPDSLAVSLGERATINCRASKSVSTSGYSYMHWYQQKPGQPPKFLIYLASNKESGVPDRFSGSGSGTDFTLTISSLQAEDVAVYYCQHSREVPYTFGGGTKVEIKR
notes: as for B1
B3: H3_W99H_VL-par (antibody, V domains shown)
VH: QVQLVESGGGVVQPGRSLRLSCAASGFTFSDYGMHWVRQAPGKGLEWVAYISSGGTTIYYADTVKGRFTISRDNSKNTLYLQMNSLRAEDTAVYYCARHTNLYAMDYWGQGTTVTVSS
VL: DIVLTQSPDSLAVSLGERATINCRASKSVSTSGYSYMHWYQQKPGQPPKFLIYLASNLESGVPDRFSGSGSGTDFTLTISSLQAEDVAVYYCQHSREVPYTFGGGTKVEIKR
notes: as for B1
B4: H3_M105P_L2 (antibody, V domains shown)
VH: QVQLVESGGGVVQPGRSLRLSCAASGFTFSDYGMHWVRQAPGKGLEWVAYISSGGTTIYYADTVKGRFTISRDNSKNTLYLQMNSLRAEDTAVYYCARWTNLYAPDYWGQGTTVTVSS
VL: DIVLTQSPDSLAVSLGERATINCRASKSVSTSGYSYMHWYQQKPGQPPKFLIYLASNKESGVPDRFSGSGSGTDFTLTISSLQAEDVAVYYCQHSREVPYTFGGGTKVEIKR
notes: as for B1

These binders were tested against T1, huZIP12-ECD-GST (human, UniProt Q504Y0 24-202) (assay: HTRF competition: unlabelled antibody against Tb-labelled 51B12-parent on hZIP12-ECD-GST, detected with anti-GST-XL665).
T1 construct: also called hZIP12-ECD-GST; human ZIP12-ECD-GST; not shown: glutathione S-transferase (GST) tag
T1 sequence (Q504Y0 24-202): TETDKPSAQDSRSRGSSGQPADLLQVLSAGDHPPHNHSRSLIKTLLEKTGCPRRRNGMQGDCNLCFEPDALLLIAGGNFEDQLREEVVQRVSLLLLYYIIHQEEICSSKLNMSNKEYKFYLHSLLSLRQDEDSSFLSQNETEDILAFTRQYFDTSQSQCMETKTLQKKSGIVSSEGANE
Procedure: Homogeneous Time Resolved Fluorescence (HTRF) assays were used to analyse the antibodies. A checkerboard assay was performed to validate the binding of the terbium labeled-antibody with hZIP12-ECD-GST. Serial dilutions (starting at 1000 ng/ml, semi-log dilutions) of Terbium-labeled 51B12-parent were incubated with serial dilutions of hZIP12-ECD-GST (starting at 5000 ng/ml, semi-log dilutions) followed by incubation with anti-GST-XL665. After excitation (320 nm), emission signals were obtained and HTRF ratio was calculated (665 nm/615 nm, Panel A). Signal/background ratios (S/B) were calculated from the HTRF ratios (0 ng/ml hZIP12-ECD-GST as background signal) and plotted against the Tb-51B12-parent concentration. The combinations 500 ng/ml hZIP12-ECD-GST+50 ng Tb-Ab, 150 ng/ml hZIP12-ECD-GST+50 ng Tb-Ab and 50 ng/ml hZIP12-ECD-GST+50 ng Tb-Ab were chosen as range for the competition assay. For the HTRF assay, 150 ng/ml hZIP12-ECD-GST+30 ng/ml Tb-51B12 was selected.
With B1 the “IC50 (read off the curve)” value was about 0.2 µg/mL. For B2, the “IC50 (read off the curve)” value was about 0.06 µg/mL. With B3 the “IC50 (read off the curve)” value was about 0.06 µg/mL. In the case of B4, the “IC50 (read off the curve)” value is reported as about 0.2 µg/mL.
